Laboratory results published in paper PMC2196190.

Biological target: hBUBR1 (human (endogenous in HeLa)) (UniProt O60566)
Test: co-IP

UniProt O60566, sequence (O60566 whole entry): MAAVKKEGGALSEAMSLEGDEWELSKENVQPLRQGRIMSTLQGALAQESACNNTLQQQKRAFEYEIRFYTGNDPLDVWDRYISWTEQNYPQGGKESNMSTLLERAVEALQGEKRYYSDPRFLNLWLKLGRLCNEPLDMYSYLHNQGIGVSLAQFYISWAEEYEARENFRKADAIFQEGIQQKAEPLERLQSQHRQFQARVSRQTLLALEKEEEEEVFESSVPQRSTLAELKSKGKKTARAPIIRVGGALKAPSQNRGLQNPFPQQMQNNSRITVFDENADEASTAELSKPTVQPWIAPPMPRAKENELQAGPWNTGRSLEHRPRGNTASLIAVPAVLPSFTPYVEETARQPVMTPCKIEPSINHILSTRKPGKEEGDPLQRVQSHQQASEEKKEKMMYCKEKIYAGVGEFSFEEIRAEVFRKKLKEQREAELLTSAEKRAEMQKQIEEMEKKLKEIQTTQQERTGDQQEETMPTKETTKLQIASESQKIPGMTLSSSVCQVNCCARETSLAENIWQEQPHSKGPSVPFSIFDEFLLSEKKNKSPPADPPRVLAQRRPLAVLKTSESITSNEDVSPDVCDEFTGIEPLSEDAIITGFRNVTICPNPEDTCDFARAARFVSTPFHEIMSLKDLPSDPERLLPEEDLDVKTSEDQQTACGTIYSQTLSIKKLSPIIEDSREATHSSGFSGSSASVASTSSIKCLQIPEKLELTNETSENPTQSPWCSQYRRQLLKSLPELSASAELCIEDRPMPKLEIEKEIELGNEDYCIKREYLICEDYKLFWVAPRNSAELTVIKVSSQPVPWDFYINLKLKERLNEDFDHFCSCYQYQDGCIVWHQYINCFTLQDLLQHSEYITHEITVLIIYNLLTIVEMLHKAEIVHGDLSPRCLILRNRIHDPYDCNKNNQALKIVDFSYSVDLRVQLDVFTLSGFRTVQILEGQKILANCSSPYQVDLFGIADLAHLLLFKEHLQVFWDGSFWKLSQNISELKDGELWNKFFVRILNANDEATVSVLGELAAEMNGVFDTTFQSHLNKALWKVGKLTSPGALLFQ

stoichiometry N: 1
Substance: anaphase-promoting complex/cyclosome (APC/C) from mitotic HeLa cells (from UniProt P30260;Q13042;Q9UJX3)
